Results: patent publication US12467929

Legend:
[1] = molecular target: recombinant UBE3A protein (Homo sapiens (Human)) (UniProt Q05086); test: Simoa; capture GTX; SBG 150 pm; UBE3A 0.160 ng/ml
[2] = molecular target: recombinant UBE3A protein (Homo sapiens (Human)) (UniProt Q05086); test: Simoa; capture GTX; 3E5 0.4 ug/ml; UBE3A 4.00 ng/ml
[3] = molecular target: recombinant UBE3A protein (Homo sapiens (Human)) (UniProt Q05086); test: Simoa; capture GTX; SBG 150 pm; UBE3A 0.00128 ng/ml
[4] = molecular target: recombinant UBE3A protein (Homo sapiens (Human)) (UniProt Q05086); test: Simoa; capture GTX; 3E5 0.4 ug/ml; UBE3A 0.160 ng/ml
[5] = molecular target: recombinant UBE3A protein (Homo sapiens (Human)) (UniProt Q05086); test: Simoa; capture GTX; 3E5 0.4 ug/ml; UBE3A 0.00640 ng/ml
[6] = molecular target: recombinant UBE3A protein (Homo sapiens (Human)) (UniProt Q05086); test: Simoa head-to-head, Table 11; capture GTX; UBE3A 4.00 ng/ml
[7] = molecular target: recombinant UBE3A protein (Homo sapiens (Human)) (UniProt Q05086); test: Simoa; capture GTX, no helper beads; 3E5 0.1 ug/ml; UBE3A 0.800 ng/ml
[8] = molecular target: recombinant UBE3A protein (Homo sapiens (Human)) (UniProt Q05086); test: Simoa; capture GTX, no helper beads; 3E5 0.4 ug/ml; UBE3A 0.160 ng/ml

Sequence of UniProt Q05086 (Q05086 whole entry): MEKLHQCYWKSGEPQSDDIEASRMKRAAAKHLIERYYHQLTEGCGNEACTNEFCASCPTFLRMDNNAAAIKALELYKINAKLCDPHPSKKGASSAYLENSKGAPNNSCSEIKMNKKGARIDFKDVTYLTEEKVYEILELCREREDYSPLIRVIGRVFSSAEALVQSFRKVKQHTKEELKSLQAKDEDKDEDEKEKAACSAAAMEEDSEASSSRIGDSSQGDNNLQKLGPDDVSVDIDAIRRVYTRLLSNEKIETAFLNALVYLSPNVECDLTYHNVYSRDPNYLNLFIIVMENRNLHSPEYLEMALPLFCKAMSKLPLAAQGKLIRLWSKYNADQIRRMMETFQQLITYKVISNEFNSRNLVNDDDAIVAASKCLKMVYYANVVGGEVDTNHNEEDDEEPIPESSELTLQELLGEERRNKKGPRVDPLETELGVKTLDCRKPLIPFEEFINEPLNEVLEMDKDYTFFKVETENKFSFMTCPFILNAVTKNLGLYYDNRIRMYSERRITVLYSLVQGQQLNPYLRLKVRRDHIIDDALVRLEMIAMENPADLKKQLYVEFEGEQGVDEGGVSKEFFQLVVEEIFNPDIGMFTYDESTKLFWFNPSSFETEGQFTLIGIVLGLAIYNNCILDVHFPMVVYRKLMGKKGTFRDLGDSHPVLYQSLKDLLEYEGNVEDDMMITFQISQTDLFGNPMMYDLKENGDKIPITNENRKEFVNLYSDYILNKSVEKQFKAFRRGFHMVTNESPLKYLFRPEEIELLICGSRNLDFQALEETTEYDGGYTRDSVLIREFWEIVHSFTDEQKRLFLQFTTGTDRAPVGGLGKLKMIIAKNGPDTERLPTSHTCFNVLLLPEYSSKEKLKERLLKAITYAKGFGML

AEB1 [1]: 0.0773 | AEB2 [1]: 0.0769 | Average AEB [1]: 0.0771 | Signal to Background [1]: 5.82 | AEB1 [2]: 2.3 | AEB2 [2]: 2.58 | AEB3 [2]: 2.4 | Average AEB [2]: 2.43 | Signal to Background [2]: 38.8 | AEB1 [3]: 0.013 | AEB2 [3]: 0.018 | AEB3 [3]: 0.0134 | Average AEB [3]: 0.0148 | Signal to Background [3]: 1.12 | AEB1 [4]: 0.172 | AEB2 [4]: 0.165 | AEB3 [4]: 0.174 | Average AEB [4]: 0.171 | Signal to Background [4]: 2.72 | AEB1 [5]: 0.0671 | AEB2 [5]: 0.0638 | AEB3 [5]: 0.0865 | Average AEB [5]: 0.0725 | Signal to Background [5]: 1.16 | AEB1 [6]: 0.269 | AEB2 [6]: 0.262 | Ave AEB [6]: 0.266 | Signal to Background [6]: 32.4 | AEB1 [7]: 0.164 | AEB2 [7]: 0.157 | Average AEB [7]: 0.16 | Signal to Background [7]: 27.9 | AEB1 [8]: 0.1 | AEB2 [8]: 0.108 | Average AEB [8]: 0.104 | Signal to Background [8]: 5.33
Substance: anti-UBE3A antibody 3E5 (SAB1404508-100 ug, Millipore-Sigma)
